Assays:
human CD137 ECD-mIgG2a [1] = target: T1, human CD137 ECD-mIgG2a (human); test: SPR, Fc-fusion VH captured
T1 construct: ECD 24-183 of huCD137 fused to mouse IgG2a Fc; also called huCD137-mIgG2a; huCD137
Procedure: Characterization of anti-huCD137 VH domain antibodies were made by SPR assays using BIAcore™ T-200 (GE Life Sciences). Briefly, anti-human IgG (Fc) antibody was immobilized on an activated CM5 biosensor chip (Cat.: BR100839, GE Life Sciences). Anti-huCD137 domain antibodies were flowed over the chip surface and captured by anti-human IgG (Fc) antibody. […] The equilibrium dissociation constant (KD) was calculated as the ratio koff/kₒₙ.
Affinity comparison on CD137 affinity matured variants was made by SPR assays using BIAcore™ T-200 (GE Life Sciences) and flow cytometry as described.

human CD137 ECD-mIgG2a [2] = target: T1, human CD137 ECD-mIgG2a; test: SPR, A-CEAxCD137 format

T1 sequence (chain, as listed by the source limits assumed): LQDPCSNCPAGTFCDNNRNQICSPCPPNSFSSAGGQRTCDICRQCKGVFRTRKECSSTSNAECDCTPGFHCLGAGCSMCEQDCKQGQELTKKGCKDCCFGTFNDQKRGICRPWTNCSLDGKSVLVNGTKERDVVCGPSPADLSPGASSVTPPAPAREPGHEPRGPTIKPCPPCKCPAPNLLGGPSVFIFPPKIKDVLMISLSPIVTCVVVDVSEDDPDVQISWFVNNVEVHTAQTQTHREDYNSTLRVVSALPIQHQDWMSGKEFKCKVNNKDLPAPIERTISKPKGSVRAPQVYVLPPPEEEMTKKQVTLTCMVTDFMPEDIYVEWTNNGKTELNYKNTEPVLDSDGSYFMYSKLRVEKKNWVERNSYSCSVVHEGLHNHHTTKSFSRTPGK

| Binder | Kd (human CD137 ECD-mIgG2a [1]) [nM] | Kd (human CD137 ECD-mIgG2a [2]) [nM] |
| --- | --- | --- |
| BGA-3285-mutFc (Fc fusion) EVQLLESGGGLVQPGGSLRLSCAASGFTISAEDVGWVRQAPGKGLEWVSAILDFGGSTYYAESVKGRFTISRDNAKNTLYLQMSSLRAEDTAVYYCARVVYHAGGGVTFDTRGQGTQVTVSSGGGGSDKTHTCPPCPAPPAAGPSVFLFPPKPKDTLMISRTPEVTCVVVDVSHEDPEVKFNWYVDGVEVHNAKTKPREEQYNSTYRVVSVLTVLHQDWLNGKEYKCKVSNKALAAPIEKTISKAKGQPREPQVYTLPPSREEMTKNQVSLTCLVKGFYPSDIAVEWESNGQPENNYKTTPPVLDSDGSFFLYSKLTVDKSRWQQGNVFSCSVMHEALHNHYTQKSLSLSPGK | 186 |  |
| BGA-9468-mutFc (Fc fusion) EVQLLESGGGLVQPGGSLRLSCAASGFTVSAEDVGWVRQAPGKGLEWVSAILDSGGSTYYAESVKGRFTISRDNAKNTLYLQMSSLRAEDTAVYYCARVVYHSGGGVTFDLRGQGTQVTVSSGGGGSDKTHTCPPCPAPPAAGPSVFLFPPKPKDTLMISRTPEVTCVVVDVSHEDPEVKFNWYVDGVEVHNAKTKPREEQYNSTYRVVSVLTVLHQDWLNGKEYKCKVSNKALAAPIEKTISKAKGQPREPQVYTLPPSREEMTKNQVSLTCLVKGFYPSDIAVEWESNGQPENNYKTTPPVLDSDGSFFLYSKLTVDKSRWQQGNVFSCSVMHEALHNHYTQKSLSLSPGK | 190 |  |
| BGA-5385-mutFc (Fc fusion) EVQLLESGGGLVQPGGSLRLSCAASGFTLSAEDVGWVRQAPGKGLEWVSAILDHGGSTYYAESVKGRFTISRDNAKNTLYLQMSSLRAEDTAVYYCARVIYHAGGGVTYDYRGQGTQVTVSSGGGGSDKTHTCPPCPAPPAAGPSVFLFPPKPKDTLMISRTPEVTCVVVDVSHEDPEVKFNWYVDGVEVHNAKTKPREEQYNSTYRVVSVLTVLHQDWLNGKEYKCKVSNKALAAPIEKTISKAKGQPREPQVYTLPPSREEMTKNQVSLTCLVKGFYPSDIAVEWESNGQPENNYKTTPPVLDSDGSFFLYSKLTVDKSRWQQGNVFSCSVMHEALHNHYTQKSLSLSPGK | 100 |  |
| BGA-7916-mutFc (Fc fusion) EVQLLESGGGLVQPGGSLRLSCAASGFTVSAEDVGWVRQAPGKGLEWVSAILDSGGSTYYAESVKGRFTISRDNAKNTLYLQMSSLRAEDTAVYYCARVVYHAGGGVTYDTRGQGTQVTVSSGGGGSDKTHTCPPCPAPPAAGPSVFLFPPKPKDTLMISRTPEVTCVVVDVSHEDPEVKFNWYVDGVEVHNAKTKPREEQYNSTYRVVSVLTVLHQDWLNGKEYKCKVSNKALAAPIEKTISKAKGQPREPQVYTLPPSREEMTKNQVSLTCLVKGFYPSDIAVEWESNGQPENNYKTTPPVLDSDGSFFLYSKLTVDKSRWQQGNVFSCSVMHEALHNHYTQKSLSLSPGK | 87.7 |  |
| BGA-8425-mutFc (Fc fusion) EVQLLESGGGLVQPGGSLRLSCAASGFTLSAEDVGWVRQAPGKGLEWVSAILDSGGSTYYAESVKGRFTISRDNAKNTLYLQMSSLRAEDTAVYYCARVVYHAGGGVTYDYRGQGTQVTVSSGGGGSDKTHTCPPCPAPPAAGPSVFLFPPKPKDTLMISRTPEVTCVVVDVSHEDPEVKFNWYVDGVEVHNAKTKPREEQYNSTYRVVSVLTVLHQDWLNGKEYKCKVSNKALAAPIEKTISKAKGQPREPQVYTLPPSREEMTKNQVSLTCLVKGFYPSDIAVEWESNGQPENNYKTTPPVLDSDGSFFLYSKLTVDKSRWQQGNVFSCSVMHEALHNHYTQKSLSLSPGK | 93.4 |  |
| BGA-3849-mutFc (Fc fusion) EVQLLESGGGLVQPGGSLRLSCAASGFTLSHEDVGWVRQAPGKGLEWVSAILDSGGSTYYAESVKGRFTISRDNAKNTLYLQMSSLRAEDTAVYYCARYVYHAGGGVTFDTRGQGTQVTVSSGGGGSDKTHTCPPCPAPPAAGPSVFLFPPKPKDTLMISRTPEVTCVVVDVSHEDPEVKFNWYVDGVEVHNAKTKPREEQYNSTYRVVSVLTVLHQDWLNGKEYKCKVSNKALAAPIEKTISKAKGQPREPQVYTLPPSREEMTKNQVSLTCLVKGFYPSDIAVEWESNGQPENNYKTTPPVLDSDGSFFLYSKLTVDKSRWQQGNVFSCSVMHEALHNHYTQKSLSLSPGK | 76.3 |  |
| BGA-3953-mutFc (Fc fusion) EVQLLESGGGLVQPGGSLRLSCAASGFTVSAEDVGWVRQAPGKGLEWVSAILDSGGSTYYAESVKGRFTISRDNAKNTLYLQMSSLRAEDTAVYYCARIVYHAGGGVTFDTRGQGTQVTVSSGGGGSDKTHTCPPCPAPPAAGPSVFLFPPKPKDTLMISRTPEVTCVVVDVSHEDPEVKFNWYVDGVEVHNAKTKPREEQYNSTYRVVSVLTVLHQDWLNGKEYKCKVSNKALAAPIEKTISKAKGQPREPQVYTLPPSREEMTKNQVSLTCLVKGFYPSDIAVEWESNGQPENNYKTTPPVLDSDGSFFLYSKLTVDKSRWQQGNVFSCSVMHEALHNHYTQKSLSLSPGK | 48.3 |  |
| Format A BGA-3285 (bispecific antibody, human IgG1, kappa) heavy: QVQLVQSGAEVKKPGASVKVSCKASGYIFTSYYLHWVRQAPGQGLEWIGYINPQTGKTSYAQKFQGRVTMTRDTSTSTVYMELSSLRSEDTAVYYCAREYGNYNYPLDYWGQGTLVTVSSASTKGPSVFPLAPSSKSTSGGTAALGCLVKDYFPEPVTVSWNSGALTSGVHTFPAVLQSSGLYSLSSVVTVPSSSLGTQTYICNVNHKPSNTKVDKKVEPKSCDKTHTCPPCPAPPAAGPSVFLFPPKPKDTLMISRTPEVTCVVVDVSHEDPEVKFNWYVDGVEVHNAKTKPREEQYNSTYRVVSVLTVLHQDWLNGKEYKCKVSNKALAAPIEKTISKAKGQPREPQVYTLPPSREEMTKNQVSLTCLVKGFYPSDIAVEWESNGQPENNYKTTPPVLDSDGSFFLYSKLTVDKSRWQQGNVFSCSVMHEALHNHYTQKSLSLSPGKGGGGSEVQLLESGGGLVQPGGSLRLSCAASGFTISAEDVGWVRQAPGKGLEWVSAILDFGGSTYYAESVKGRFTISRDNAKNTLYLQMSSLRAEDTAVYYCARVVYHAGGGVTFDTRGQGTQVTVSS light: DIQMTQSPSSLSASVGDRVTITCRASENQYGYLAWYQQKPGKVPKLLIYNYKNLVEGVPSRFSGSGSGTDFTLTISSLQPEDVATYYCQHHLGTPYTFGQGTKVEIKRTVAAPSVFIFPPSDEQLKSGTASVVCLLNNFYPREAKVQWKVDNALQSGNSQESVTEQDSKDSTYSLSSTLTLSKADYEKHKVYACEVTHQGLSSPVTKSFNRGEC |  | 798 |

Now from value to binder:

| Kd (human CD137 ECD-mIgG2a [1]) [nM] | Kd (human CD137 ECD-mIgG2a [2]) [nM] | Binder |
| --- | --- | --- |
| 1030 |  | BGA-4988-mutFc (Fc fusion) EVQLLESGGGLVQPGGSLRLSCAASGFTVSAEDVGWVRQAPGKGLEWVSAILDRGGSTYYAESVKGRFTISRDNAKNTLYLQMSSLRAEDTAVYYCARVVYHAGGGVTYDTRGQGTQVTVSSGGGGSDKTHTCPPCPAPPAAGPSVFLFPPKPKDTLMISRTPEVTCVVVDVSHEDPEVKFNWYVDGVEVHNAKTKPREEQYNSTYRVVSVLTVLHQDWLNGKEYKCKVSNKALAAPIEKTISKAKGQPREPQVYTLPPSREEMTKNQVSLTCLVKGFYPSDIAVEWESNGQPENNYKTTPPVLDSDGSFFLYSKLTVDKSRWQQGNVFSCSVMHEALHNHYTQKSLSLSPGK |
| 151 |  | BGA-9442-mutFc (Fc fusion) EVQLLESGGGLVQPGGSLRLSCAASGFTISAEDVGWVRQAPGKGLEWVSAILDSGGSTYYAESVKGRFTISRDNAKNTLYLQMSSLRAEDTAVYYCARYVYHAGGGVTFDLRGQGTQVTVSSGGGGSDKTHTCPPCPAPPAAGPSVFLFPPKPKDTLMISRTPEVTCVVVDVSHEDPEVKFNWYVDGVEVHNAKTKPREEQYNSTYRVVSVLTVLHQDWLNGKEYKCKVSNKALAAPIEKTISKAKGQPREPQVYTLPPSREEMTKNQVSLTCLVKGFYPSDIAVEWESNGQPENNYKTTPPVLDSDGSFFLYSKLTVDKSRWQQGNVFSCSVMHEALHNHYTQKSLSLSPGK |
| 193 |  | BGA-7746-mutFc (Fc fusion) EVQLLESGGGLVQPGGSLRLSCAASGFTVSAEDVGWVRQAPGKGLEWVSAILDFGGSTYYAESVKGRFTISRDNAKNTLYLQMSSLRAEDTAVYYCARVVYHAGGGVTFDTRGQGTQVTVSSGGGGSDKTHTCPPCPAPPAAGPSVFLFPPKPKDTLMISRTPEVTCVVVDVSHEDPEVKFNWYVDGVEVHNAKTKPREEQYNSTYRVVSVLTVLHQDWLNGKEYKCKVSNKALAAPIEKTISKAKGQPREPQVYTLPPSREEMTKNQVSLTCLVKGFYPSDIAVEWESNGQPENNYKTTPPVLDSDGSFFLYSKLTVDKSRWQQGNVFSCSVMHEALHNHYTQKSLSLSPGK |
|  | 115 | Format A BGA-3953 (bispecific antibody, human IgG1, kappa) heavy: QVQLVQSGAEVKKPGASVKVSCKASGYIFTSYYLHWVRQAPGQGLEWIGYINPQTGKTSYAQKFQGRVTMTRDTSTSTVYMELSSLRSEDTAVYYCAREYGNYNYPLDYWGQGTLVTVSSASTKGPSVFPLAPSSKSTSGGTAALGCLVKDYFPEPVTVSWNSGALTSGVHTFPAVLQSSGLYSLSSVVTVPSSSLGTQTYICNVNHKPSNTKVDKKVEPKSCDKTHTCPPCPAPPAAGPSVFLFPPKPKDTLMISRTPEVTCVVVDVSHEDPEVKFNWYVDGVEVHNAKTKPREEQYNSTYRVVSVLTVLHQDWLNGKEYKCKVSNKALAAPIEKTISKAKGQPREPQVYTLPPSREEMTKNQVSLTCLVKGFYPSDIAVEWESNGQPENNYKTTPPVLDSDGSFFLYSKLTVDKSRWQQGNVFSCSVMHEALHNHYTQKSLSLSPGKGGGGSEVQLLESGGGLVQPGGSLRLSCAASGFTVSAEDVGWVRQAPGKGLEWVSAILDSGGSTYYAESVKGRFTISRDNAKNTLYLQMSSLRAEDTAVYYCARIVYHAGGGVTFDTRGQGTQVTVSS light: DIQMTQSPSSLSASVGDRVTITCRASENQYGYLAWYQQKPGKVPKLLIYNYKNLVEGVPSRFSGSGSGTDFTLTISSLQPEDVATYYCQHHLGTPYTFGQGTKVEIKRTVAAPSVFIFPPSDEQLKSGTASVVCLLNNFYPREAKVQWKVDNALQSGNSQESVTEQDSKDSTYSLSSTLTLSKADYEKHKVYACEVTHQGLSSPVTKSFNRGEC |

Reference: US20240190989A1 (BEIGENE SWITZERLAND, published 2024)
